B1: N56A HMFG1 (antibody, human IgG1, kappa, V domains shown)
VH: QVQLVQSGAEVKKPGASVKVSCKASGYTFSAYWIEWVRQAPGKGLEWVGEILPGSANSRYNEKFKGRVTVTRDTSTNTAYMELSSLRSEDTAVYYCARSYDFAWFAYWGQGTLVTVSS
VL: DIQMTQSPSSLSASVGDRVTITCKSSQSLLYSSNQKIYLAWYQQKPGKAPKLLIYWASTRESGVPSRFSGSGSGTDFTFTISSLQPEDIATYYCQQYYRYPRTFGQGTKVEIKR
B2: N56C HMFG1 (antibody, human IgG1, kappa, V domains shown)
VH: QVQLVQSGAEVKKPGASVKVSCKASGYTFSAYWIEWVRQAPGKGLEWVGEILPGSCNSRYNEKFKGRVTVTRDTSTNTAYMELSSLRSEDTAVYYCARSYDFAWFAYWGQGTLVTVSS
VL: DIQMTQSPSSLSASVGDRVTITCKSSQSLLYSSNQKIYLAWYQQKPGKAPKLLIYWASTRESGVPSRFSGSGSGTDFTFTISSLQPEDIATYYCQQYYRYPRTFGQGTKVEIKR
B3: N56G HMFG1 (antibody, human IgG1, kappa, V domains shown)
VH: QVQLVQSGAEVKKPGASVKVSCKASGYTFSAYWIEWVRQAPGKGLEWVGEILPGSGNSRYNEKFKGRVTVTRDTSTNTAYMELSSLRSEDTAVYYCARSYDFAWFAYWGQGTLVTVSS
VL: DIQMTQSPSSLSASVGDRVTITCKSSQSLLYSSNQKIYLAWYQQKPGKAPKLLIYWASTRESGVPSRFSGSGSGTDFTFTISSLQPEDIATYYCQQYYRYPRTFGQGTKVEIKR
notes: also called N56G mutant

The target of the assay is T1, MUC1-GST fusion protein containing seven variable number tandem repeat (VNTR) region (UniProt P15941 166-305).
T1 construct: domain: seven variable number tandem, repeat (VNTR) region; Produced by the applicant; coated on the ELISA plate at 1 ug/ml; also called MUC1 antigen; antigen; not shown: GST fusion partner
T1 sequence (P15941 126-265): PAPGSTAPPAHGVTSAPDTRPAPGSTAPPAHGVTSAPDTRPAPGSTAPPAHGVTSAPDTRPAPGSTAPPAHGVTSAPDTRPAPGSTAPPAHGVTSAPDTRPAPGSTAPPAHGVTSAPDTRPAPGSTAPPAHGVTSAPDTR
The assay can be described thus: ELISA, plate-coated MUC1-GST; EC50 against HMFG1 standard of the same assay. As to the method:
96-well plates (Nunc Maxisorp) were coated with 100 μl of MUC1 at 1 μg/ml in carbonate-bicarbonate buffer (Sigma C3041) overnight at 4° C. MUC1 antigen used here was produced by the applicant and is a MUC1-GST fusion protein containing seven variable number tandem, repeat (VNTR) region; VNTR is the antigen recognised by MUC1.
Plates were then washed with a wash solution of PBS (phosphate buffered saline), +0.05% Tween 20, and serial dilutions of HMFG1 samples (wildtype protein or mutant) in incubation buffer (200 ml of PBS +0.2 g BSA (bovine serum albumin)) applied to the wells and incubated at 37° C. for 1 hour.
Plates were again washed, and treated with detection antibody (1.0 μl HRP (horse radish peroxidase) anti-human IgG (BD Pharmingen, P# 555788, or Jackson P#209-035-056) +1 ml incubation buffer) at 37° C. for 30 min, washed with wash buffer, and developed with TMB (tetramethylbenzidine) reagent (100 μl TMB (Sigma, T8665) warmed to room temperature and 100 μl sulphuric acid was used to stop the reaction after approximately 6 minutes). The optical density of the plates was read at 450 nm on a Spectromax plate reader immediately after development.
(In general: ELISA stands for enzyme-linked immunosorbent assay.)
Turning to B1, the “fold increased affinity compared to HMFG1 standard (from EC50)” value is ~5 fold. As for B2, the “fold increased affinity compared to HMFG1 standard (from EC50)” value was ~20 fold. In the case of B3 it was ~10 fold.
